In PMC12002316 (Proceedings of the National Academy of Sciences of the …, 2025):

Biological target: the molecule itself
Experiment: cryo-EM structure

B1: Chloroflexus aurantiacus F1FO ATP synthase c-subunit (natural protein, Chloroflexus aurantiacus J-10-fl, UniProt A9WGS9 1-76, looked up)
chain: MEGLNLVATALAVGLGAIGPGVGIGIIVSGAVQAIGRNPEIENRVVTYMFIGIAFTEALAIFGLVIAFLIGFGVLQ
  stoichiometry N: 10
